Each block holds one binder with its values, some of them ahead of it. Bridges are numbered along the chain shown (N, C = ends). Where no end group is shown, it is not given here. [ ]: non-standard residue; d: D form. Sec = N[C@@H](C[SeH])C(=O)O
How the values were obtained:
[1] = molecular target: T1, human vasopressin V1a receptor (human, UniProt P37288 1-418); assay: cell-based or functional assay
[2] = molecular target: T1, human vasopressin V1a receptor; assay: cell-based or functional assay; remark: listed apart in the source
[3] = molecular target: human vasopressin V2 receptor (human, UniProt P30518 1-371); assay: cell-based or functional assay
human oxytocin receptor [4] = molecular target: T2, human oxytocin receptor (human, UniProt P30559 1-389); assay: cell-based or functional assay
T2 sequence (looked up): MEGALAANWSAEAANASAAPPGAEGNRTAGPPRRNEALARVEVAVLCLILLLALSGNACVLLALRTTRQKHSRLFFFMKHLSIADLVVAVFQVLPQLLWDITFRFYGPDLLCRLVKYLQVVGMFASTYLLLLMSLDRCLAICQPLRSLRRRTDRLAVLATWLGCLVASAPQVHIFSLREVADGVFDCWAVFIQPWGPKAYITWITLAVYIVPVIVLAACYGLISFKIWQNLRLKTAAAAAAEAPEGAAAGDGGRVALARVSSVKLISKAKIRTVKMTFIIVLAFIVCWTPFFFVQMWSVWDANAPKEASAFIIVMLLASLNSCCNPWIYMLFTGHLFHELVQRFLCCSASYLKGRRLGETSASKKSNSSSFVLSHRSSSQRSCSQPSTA

[5] = molecular target: T3, human vasopressin V1b receptor (human, UniProt P47901 1-424); assay: cell-based or functional assay
T3 sequence (looked up): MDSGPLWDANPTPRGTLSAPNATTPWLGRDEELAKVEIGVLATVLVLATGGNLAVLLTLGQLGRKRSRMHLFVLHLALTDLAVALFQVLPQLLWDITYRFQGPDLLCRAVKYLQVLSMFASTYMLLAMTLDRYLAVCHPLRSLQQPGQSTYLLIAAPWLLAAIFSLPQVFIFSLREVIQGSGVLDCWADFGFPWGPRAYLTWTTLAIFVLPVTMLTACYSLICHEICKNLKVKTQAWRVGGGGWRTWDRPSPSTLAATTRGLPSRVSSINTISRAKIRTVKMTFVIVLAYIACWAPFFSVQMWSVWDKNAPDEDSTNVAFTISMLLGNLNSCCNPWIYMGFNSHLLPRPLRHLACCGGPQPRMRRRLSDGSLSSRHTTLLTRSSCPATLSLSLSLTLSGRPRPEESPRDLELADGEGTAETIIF

human oxytocin receptor [6] = molecular target: T2, human oxytocin receptor; assay: cell-based or functional assay; remark: listed apart in the source
[7] = molecular target: T3, human vasopressin V1b receptor; assay: cell-based or functional assay; remark: listed apart in the source
human oxytocin receptor [8] = molecular target: T2, human oxytocin receptor; assay: radioligand displacement (3H-OT), SPA beads, COS-1 membranes

T1 sequence (P37288 whole entry): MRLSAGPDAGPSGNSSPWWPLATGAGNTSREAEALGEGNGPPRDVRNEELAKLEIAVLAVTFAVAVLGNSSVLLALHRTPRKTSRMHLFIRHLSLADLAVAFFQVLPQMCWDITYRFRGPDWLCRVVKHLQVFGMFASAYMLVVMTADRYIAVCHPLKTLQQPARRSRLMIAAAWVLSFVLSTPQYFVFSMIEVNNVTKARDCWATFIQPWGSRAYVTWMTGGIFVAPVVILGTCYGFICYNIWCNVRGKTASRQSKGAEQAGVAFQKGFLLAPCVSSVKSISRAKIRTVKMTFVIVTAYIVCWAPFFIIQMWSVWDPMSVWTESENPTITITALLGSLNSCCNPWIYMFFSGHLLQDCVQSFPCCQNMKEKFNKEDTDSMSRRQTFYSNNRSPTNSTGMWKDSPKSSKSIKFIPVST

Emax, FLIPR calcium assay [1]: 71%
Emax, IP-One HTRF assay [2]: 79%
Binder: CYIQNCPLX (C-terminal amide; Cys1 and Cys6 form the cyclic part (disulfide)) [Oxytocin]

Emax, cAMP accumulation assay [3]: 135%
Emax, FLIPR calcium assay (human oxytocin receptor [4]): 49%
EC50, FLIPR calcium assay [1]: > 100000 nM
Emax, FLIPR calcium assay [5]: 58%
Emax, IP-One HTRF assay (human oxytocin receptor [6]): 71%
Emax, IP-One HTRF assay [7]: 63%
B1: d[C1,6U]-OT-OH (peptide)
peptide: XYIQNXPLG
modifications: by its name: desaminoselenocysteine (3-selenopropanoic acid) at position 1, L-selenocysteine at position 6, diselenide bridge; free C-terminal carboxylic acid; structure is not given

Emax, FLIPR calcium assay (human oxytocin receptor [4]): 82%
Emax, FLIPR calcium assay [1]: 104%
Emax, FLIPR calcium assay [5]: 73%
Emax, IP-One HTRF assay (human oxytocin receptor [6]): 55%
Emax, IP-One HTRF assay [2]: 67%
Binder: CYIQN[Sec]PLG-NH2 (bridge 1-6; also: selenosulfide bond) [[C6U]-OT]

EC50, cAMP accumulation assay [3]: 495 nM
Emax, cAMP accumulation assay [3]: 114%
Emax, FLIPR calcium assay (human oxytocin receptor [4]): 38%
EC50, FLIPR calcium assay [1]: > 100000 nM
IC50 (human oxytocin receptor [8]): 1280 nM
Emax, IP-One HTRF assay (human oxytocin receptor [6]): 60%
EC50, IP-One HTRF assay [2]: > 100000 nM
B2: [C1,6U]-OT-OH (peptide)
peptide: XYIQNXPLG
modifications: L-selenocysteine at positions 1 and 6, diselenide bridge; free C-terminal carboxylic acid
notes: also called [Se-Se]-OT-OH

Emax, IP-One HTRF assay [2]: 77%
Binder: CYIQNCPLG-OH (disulfide 1-6) [[S-S]-OT-OH]

Emax, FLIPR calcium assay (human oxytocin receptor [4]): 85%
Emax, FLIPR calcium assay [1]: 90%
Emax, FLIPR calcium assay [5]: 82%
Emax, IP-One HTRF assay (human oxytocin receptor [6]): 84%
Emax, IP-One HTRF assay [2]: 96%
Binder: [Sec]YIQNCPLG-NH2 (bridge 1-6 via selenosulfide) [[C1U]-OT]
